The series “cryo-EM structure” concerns the molecule itself. The series can be described thus: cryo-EM structure.
Series [1] concerns the target human mitochondrial Hsp70 (mortalin) R126W mutant (human, UniProt P38646 47-679, R126W). The experiment in a line: cryo-EM structure.

Sequence of human mitochondrial Hsp70 (mortalin) R126W mutant (P38646 47-679 R126W): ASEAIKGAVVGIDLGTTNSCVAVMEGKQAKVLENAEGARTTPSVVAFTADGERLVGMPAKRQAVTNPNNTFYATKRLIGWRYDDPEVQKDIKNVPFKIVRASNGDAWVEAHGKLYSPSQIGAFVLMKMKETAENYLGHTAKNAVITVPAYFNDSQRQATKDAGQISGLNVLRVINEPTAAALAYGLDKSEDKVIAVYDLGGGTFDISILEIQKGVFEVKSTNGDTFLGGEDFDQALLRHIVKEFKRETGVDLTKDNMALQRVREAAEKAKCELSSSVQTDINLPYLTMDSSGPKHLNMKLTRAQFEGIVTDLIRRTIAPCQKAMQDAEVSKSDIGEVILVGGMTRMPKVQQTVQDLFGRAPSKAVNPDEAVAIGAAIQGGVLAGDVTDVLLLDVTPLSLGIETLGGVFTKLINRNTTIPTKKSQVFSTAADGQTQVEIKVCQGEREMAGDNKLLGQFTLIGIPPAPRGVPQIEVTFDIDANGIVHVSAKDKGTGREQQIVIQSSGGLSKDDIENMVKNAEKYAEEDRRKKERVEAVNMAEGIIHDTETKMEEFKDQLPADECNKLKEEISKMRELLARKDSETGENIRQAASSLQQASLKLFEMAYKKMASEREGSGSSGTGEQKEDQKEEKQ

B1: human GrpEL1 (wild type) (natural protein)
chain: CTATKQKNSGQNLEEDMGQSEQKADPPATEKTLLEEKVKLEEQLKETVEKYKRALADTENLRQRSQKLVEEAKLYGIQAFCKDLLEVADVLEKATQCVPKEEIKDDNPHLKNLYEGLVMTEVQIQKVFTKHGLLKLNPVGAKFDPYEHEALFHTPVEGKEPGTVALVSKVGYKLHGRTLRPALVGVVKEA
For orientation: stoichiometry N means a count of units in the complex or per binding partner. Take B1: the “stoichiometry N” value in the series “cryo-EM structure” was 2.

B2: human GrpEL1 Y173A mutant (natural protein)
chain: CTATKQKNSGQNLEEDMGQSEQKADPPATEKTLLEEKVKLEEQLKETVEKYKRALADTENLRQRSQKLVEEAKLYGIQAFCKDLLEVADVLEKATQCVPKEEIKDDNPHLKNLYEGLVMTEVQIQKVFTKHGLLKLNPVGAKFDPAEHEALFHTPVEGKEPGTVALVSKVGYKLHGRTLRPALVGVVKEA
As to B2, in series [1], the binding result is recorded as “binds”.
